In this experiment the target is Jurkat-M663, Jurkat-M665 and Jurkat-M666 (ISD-modified BCMA CARs M663, M665, M666). Put plainly: cell-based or functional assay.

B1: wildtype SIV Nef, Q02840 1-223 (protein)
chain: MGSSNSKRQQQGLLKLWRGLRGKPGADWVLLSDPLIGQSSTVQEECGKALKKSWGKGKMTPDGRRLQEGDTFDEWDDDEEEVGFPVQPRVPLRQMTYKLAVDFSHFLKSKGGLDGIYYSERREKILNLYALNEWGIIDDWQAYSPGPGIRYPRVFGFCFKLVPVDLHEEARNCERHCLMHPAQMGEDPDGIDHGEVLVWKFDPKLAVEYRPDMFKDMHEHAKR
B1 showed a relative ISD-modified CAR positive rate (FACS), days 6, 7 and 8 of 41.2 to 69.8%.

B2: SIV Nef M116, Q02840 1-223 (protein)
chain: MGSSNSKRQQQGLLKLWRGLRGKPGADWVLLSDPLIGQSSTVQEECGKALKKSWGKGKMTPDGRRLQEGDTFDEWDDDEEEVGFPVQPRVPLRQMTYKLAVDFSHFLKSKGGLDGIYYSERREKILNLYALNEWGIIDDWQAYSPGPGIRYPRVFGFCFKLVPVDLHEEARNCERHCAAHPAQMGEDPDGIDHGEVLVWKFDPKLAVEYRPDMFKDMHEHAKR
As to B2, the relative ISD-modified CAR positive rate (FACS), days 6, 7 and 8 is 44.6 to 64.9%.

Values taken from patent US20220313738A1.
